Experiments:
c-Abl (mouse) = assay: phosphorylation enrichment, bacterial display (enrichment ratio); higher = better substrate or ligand; peptides without Tyr show the background
Hck = Hck (UniProt P08631); assay: as above
AncSZ = assay: as above
Fyn = Fyn (UniProt P06241); assay: as above
FGFR1 = FGFR1 (UniProt P11362); assay: as above
FGFR3 = FGFR3 (UniProt P22607); assay: as above
MERTK = MERTK (UniProt Q12866); assay: as above
EPHB1 = EPHB1 (UniProt P54762); assay: as above
EPHB2 = EPHB2 (UniProt P29323); assay: as above
Sequence of EPHB2 (P29323 whole entry, looked up): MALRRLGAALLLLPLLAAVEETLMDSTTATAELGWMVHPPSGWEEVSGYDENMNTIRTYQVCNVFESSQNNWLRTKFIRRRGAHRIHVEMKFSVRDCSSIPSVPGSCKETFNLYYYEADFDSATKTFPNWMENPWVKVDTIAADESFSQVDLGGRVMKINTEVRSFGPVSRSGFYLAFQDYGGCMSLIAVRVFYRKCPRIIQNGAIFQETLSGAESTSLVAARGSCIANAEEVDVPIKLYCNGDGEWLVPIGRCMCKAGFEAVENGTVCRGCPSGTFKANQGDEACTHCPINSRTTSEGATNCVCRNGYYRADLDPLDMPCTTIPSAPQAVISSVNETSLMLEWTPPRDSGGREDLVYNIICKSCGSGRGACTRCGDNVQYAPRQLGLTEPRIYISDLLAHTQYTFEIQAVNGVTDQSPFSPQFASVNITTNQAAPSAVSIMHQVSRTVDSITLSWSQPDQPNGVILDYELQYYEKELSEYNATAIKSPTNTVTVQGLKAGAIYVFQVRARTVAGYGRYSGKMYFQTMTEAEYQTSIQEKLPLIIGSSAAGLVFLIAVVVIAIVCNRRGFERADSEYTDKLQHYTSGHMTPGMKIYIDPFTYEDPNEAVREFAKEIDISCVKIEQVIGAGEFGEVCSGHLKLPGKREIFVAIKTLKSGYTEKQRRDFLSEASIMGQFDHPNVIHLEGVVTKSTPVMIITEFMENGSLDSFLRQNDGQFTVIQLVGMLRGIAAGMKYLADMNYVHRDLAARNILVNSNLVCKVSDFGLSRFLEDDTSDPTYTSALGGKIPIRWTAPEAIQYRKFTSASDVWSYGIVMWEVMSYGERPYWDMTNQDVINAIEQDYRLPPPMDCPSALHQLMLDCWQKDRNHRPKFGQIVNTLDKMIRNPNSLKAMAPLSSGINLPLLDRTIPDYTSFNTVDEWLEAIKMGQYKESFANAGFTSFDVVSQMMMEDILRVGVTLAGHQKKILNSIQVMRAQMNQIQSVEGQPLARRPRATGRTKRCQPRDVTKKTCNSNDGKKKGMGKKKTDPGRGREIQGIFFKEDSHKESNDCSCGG

Fes = Fes (UniProt P07332); assay: as above
Sequence of Fes (P07332 whole entry, looked up): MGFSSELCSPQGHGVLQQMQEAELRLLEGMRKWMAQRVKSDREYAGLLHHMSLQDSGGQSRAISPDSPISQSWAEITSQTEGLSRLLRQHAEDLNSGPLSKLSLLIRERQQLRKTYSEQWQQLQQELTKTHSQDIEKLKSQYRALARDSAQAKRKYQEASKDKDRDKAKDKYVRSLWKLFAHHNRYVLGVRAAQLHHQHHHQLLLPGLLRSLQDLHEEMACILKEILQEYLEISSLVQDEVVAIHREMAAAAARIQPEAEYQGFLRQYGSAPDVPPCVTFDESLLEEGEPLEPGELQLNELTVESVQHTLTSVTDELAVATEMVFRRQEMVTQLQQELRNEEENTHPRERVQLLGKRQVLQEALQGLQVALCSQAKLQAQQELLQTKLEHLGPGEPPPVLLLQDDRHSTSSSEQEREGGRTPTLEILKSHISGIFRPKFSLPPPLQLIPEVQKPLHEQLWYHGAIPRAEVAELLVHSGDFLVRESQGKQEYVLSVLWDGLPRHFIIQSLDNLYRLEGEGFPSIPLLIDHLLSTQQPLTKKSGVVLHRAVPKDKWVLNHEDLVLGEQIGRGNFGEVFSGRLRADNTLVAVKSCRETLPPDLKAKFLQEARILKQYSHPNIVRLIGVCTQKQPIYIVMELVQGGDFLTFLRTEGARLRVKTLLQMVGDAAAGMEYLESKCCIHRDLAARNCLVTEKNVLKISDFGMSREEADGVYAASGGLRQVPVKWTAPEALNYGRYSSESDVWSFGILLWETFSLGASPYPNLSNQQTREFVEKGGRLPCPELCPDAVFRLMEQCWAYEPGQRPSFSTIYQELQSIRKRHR

c-Src = assay: as above
Jak2 = Jak2 (UniProt O60674); assay: as above
Sequence of Jak2 (O60674 whole entry, looked up): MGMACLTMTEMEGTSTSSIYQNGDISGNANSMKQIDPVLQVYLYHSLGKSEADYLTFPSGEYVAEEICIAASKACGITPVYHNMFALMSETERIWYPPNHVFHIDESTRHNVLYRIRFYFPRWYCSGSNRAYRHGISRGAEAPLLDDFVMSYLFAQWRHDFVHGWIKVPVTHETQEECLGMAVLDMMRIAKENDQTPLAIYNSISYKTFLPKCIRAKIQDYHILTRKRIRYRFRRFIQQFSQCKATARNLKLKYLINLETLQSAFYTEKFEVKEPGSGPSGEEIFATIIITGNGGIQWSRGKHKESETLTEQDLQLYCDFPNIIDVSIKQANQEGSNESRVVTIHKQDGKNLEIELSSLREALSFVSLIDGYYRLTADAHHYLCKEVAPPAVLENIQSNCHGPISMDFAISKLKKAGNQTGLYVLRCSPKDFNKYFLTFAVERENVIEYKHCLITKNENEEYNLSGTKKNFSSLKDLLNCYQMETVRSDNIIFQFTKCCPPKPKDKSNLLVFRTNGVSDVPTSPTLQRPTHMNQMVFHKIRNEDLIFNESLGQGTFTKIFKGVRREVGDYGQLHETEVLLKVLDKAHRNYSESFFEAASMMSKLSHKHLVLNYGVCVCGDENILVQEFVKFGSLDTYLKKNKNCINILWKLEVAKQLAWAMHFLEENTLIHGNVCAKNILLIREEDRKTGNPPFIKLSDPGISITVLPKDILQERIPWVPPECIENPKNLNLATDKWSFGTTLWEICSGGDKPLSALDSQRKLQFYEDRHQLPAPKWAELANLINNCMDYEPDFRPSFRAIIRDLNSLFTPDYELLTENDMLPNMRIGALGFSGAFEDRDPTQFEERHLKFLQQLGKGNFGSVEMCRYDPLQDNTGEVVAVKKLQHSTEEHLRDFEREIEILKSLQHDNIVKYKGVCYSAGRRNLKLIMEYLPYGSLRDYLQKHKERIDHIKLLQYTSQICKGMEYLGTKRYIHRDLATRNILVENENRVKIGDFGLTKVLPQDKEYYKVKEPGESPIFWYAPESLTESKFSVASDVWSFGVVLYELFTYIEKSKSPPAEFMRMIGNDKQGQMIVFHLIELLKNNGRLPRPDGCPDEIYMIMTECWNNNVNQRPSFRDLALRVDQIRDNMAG

Fer (mouse) = assay: as above
SHP2-C SH2 = assay: SH2 binding enrichment of the phosphorylated peptide, bacterial display (enrichment ratio); higher = better substrate or ligand; peptides without Tyr show the background
c-Src SH2 = assay: as above
Grb2 SH2 = Grb2 SH2 (UniProt P62993); assay: as above
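Wherever SH2 binding enrichment of the phosphorylated peptide, bacterial display is given: peptide library displayed on the E. coli surface as eCPX fusions, selected cells deep-sequenced, score is each peptide's frequency after selection divided by its frequency in the input.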
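Wherever phosphorylation enrichment, bacterial display is given: 11-residue human phosphosite peptides and single-mutation variants displayed on the E. coli surface, counted by deep sequencing, each peptide's frequency after selection divided by its frequency in the unselected input library; frequency after pTyr selection over input frequency; kinase dosed for 20-30% of maximal phosphorylation in three min.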

Sequence of MERTK (Q12866 whole entry, looked up): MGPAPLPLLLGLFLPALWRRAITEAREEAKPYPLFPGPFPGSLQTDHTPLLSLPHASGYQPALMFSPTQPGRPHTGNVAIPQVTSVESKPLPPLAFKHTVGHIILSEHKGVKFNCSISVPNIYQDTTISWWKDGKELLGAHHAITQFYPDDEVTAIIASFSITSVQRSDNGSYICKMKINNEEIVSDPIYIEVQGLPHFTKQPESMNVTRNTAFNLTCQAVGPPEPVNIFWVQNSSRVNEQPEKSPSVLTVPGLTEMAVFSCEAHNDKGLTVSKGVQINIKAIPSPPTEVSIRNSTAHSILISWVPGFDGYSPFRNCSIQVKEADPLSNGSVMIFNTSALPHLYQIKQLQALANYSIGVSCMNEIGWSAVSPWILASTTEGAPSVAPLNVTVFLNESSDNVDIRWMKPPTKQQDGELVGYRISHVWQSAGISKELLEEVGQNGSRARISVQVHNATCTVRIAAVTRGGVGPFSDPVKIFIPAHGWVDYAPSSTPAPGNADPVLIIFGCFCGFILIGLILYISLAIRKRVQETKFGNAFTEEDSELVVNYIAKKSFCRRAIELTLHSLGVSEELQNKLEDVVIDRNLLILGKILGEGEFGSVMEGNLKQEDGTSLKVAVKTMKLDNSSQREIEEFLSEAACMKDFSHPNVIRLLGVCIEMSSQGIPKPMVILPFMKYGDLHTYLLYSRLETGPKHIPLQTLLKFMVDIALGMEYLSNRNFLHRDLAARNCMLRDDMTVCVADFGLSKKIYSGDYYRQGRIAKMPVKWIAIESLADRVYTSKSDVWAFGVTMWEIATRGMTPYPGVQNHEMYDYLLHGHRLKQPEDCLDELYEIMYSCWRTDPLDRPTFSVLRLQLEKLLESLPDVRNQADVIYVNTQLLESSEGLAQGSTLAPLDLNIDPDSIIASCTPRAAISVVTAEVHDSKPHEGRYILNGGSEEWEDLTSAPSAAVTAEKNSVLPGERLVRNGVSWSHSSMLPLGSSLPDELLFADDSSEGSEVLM
Sequence of EPHB1 (P54762 whole entry, looked up): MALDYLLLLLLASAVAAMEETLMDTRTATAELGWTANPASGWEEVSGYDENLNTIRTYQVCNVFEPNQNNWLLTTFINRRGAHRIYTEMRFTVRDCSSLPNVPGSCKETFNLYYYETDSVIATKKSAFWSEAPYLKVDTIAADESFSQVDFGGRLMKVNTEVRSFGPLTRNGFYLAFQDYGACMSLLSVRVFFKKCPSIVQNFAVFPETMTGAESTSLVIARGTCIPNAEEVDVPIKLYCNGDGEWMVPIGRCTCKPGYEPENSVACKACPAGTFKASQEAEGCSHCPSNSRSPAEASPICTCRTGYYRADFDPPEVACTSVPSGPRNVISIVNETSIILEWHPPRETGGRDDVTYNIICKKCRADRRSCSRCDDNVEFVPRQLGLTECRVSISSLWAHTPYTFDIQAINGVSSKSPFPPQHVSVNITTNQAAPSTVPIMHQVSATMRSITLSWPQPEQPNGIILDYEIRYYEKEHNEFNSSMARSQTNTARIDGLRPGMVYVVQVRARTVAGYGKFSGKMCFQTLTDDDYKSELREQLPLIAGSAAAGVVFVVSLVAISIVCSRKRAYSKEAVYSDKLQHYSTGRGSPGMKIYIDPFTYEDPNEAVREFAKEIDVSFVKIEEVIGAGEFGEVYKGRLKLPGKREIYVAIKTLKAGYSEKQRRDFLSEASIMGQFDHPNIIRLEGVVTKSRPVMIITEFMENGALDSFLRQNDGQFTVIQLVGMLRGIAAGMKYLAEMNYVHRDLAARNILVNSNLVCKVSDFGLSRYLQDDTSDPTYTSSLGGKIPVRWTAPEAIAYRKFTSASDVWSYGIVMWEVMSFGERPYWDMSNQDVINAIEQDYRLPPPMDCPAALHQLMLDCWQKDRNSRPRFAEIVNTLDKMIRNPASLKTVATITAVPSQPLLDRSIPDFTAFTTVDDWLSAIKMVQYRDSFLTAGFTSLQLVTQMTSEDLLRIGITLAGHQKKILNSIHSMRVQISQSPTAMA

SH2 binding enrichment (SHP2-C SH2)	SH2 binding enrichment (c-Src SH2)	SH2 binding enrichment (Grb2 SH2)	Sequence	phosphorylation enrichment (c-Abl (mouse))	phosphorylation enrichment (Hck)	phosphorylation enrichment (AncSZ)	phosphorylation enrichment (Fyn)	phosphorylation enrichment (FGFR1)	phosphorylation enrichment (FGFR3)	phosphorylation enrichment (MERTK)	phosphorylation enrichment (EPHB1)	phosphorylation enrichment (EPHB2)	phosphorylation enrichment (Fes)	phosphorylation enrichment (c-Src)	phosphorylation enrichment (Jak2)	phosphorylation enrichment (Fer (mouse))
0.996	0.823	1.12	SCPANYFAFKI [FAM3D_Y65_P60S]	3.31	1.05	1.16	0.901	7.58	5.33	7.13	3.97	2.09	1.08	2.62	5.24	0.785
0.729	0.588	0.83	SCTFTYLLGDR [ETHE1_Y38]	0.604	0.404	1.11	0.491	0.446	0.575	0.409	0.491	0.56	1.2	0.515	0.921	0.426
0.662	0.557	0.779	SDGHEYIYVDP [PDGFRB_Y579]	1.6	1.2	3.82	1.07	8.64	5.43	0.92	2.17	1.72	0.988	2	1.62	1.66
0.51	0.418	0.645	SDVCMYRKNIY [SYNE2_Y570]	0.685	0.51	1.12	0.416	0.502	0.681	0.419	0.618	0.541	1.08	0.424	0.875	0.491
0.599	0.444	0.705	SDVDLYQVRTA [PSMD9_Y70]	0.735	4.25	0.792	1.41	0.419	0.505	0.411	0.555	0.538	0.738	1.89	0.645	0.648
0.636	0.399	0.694	SENYTYIWWLN [PSG4_Y271_K267E]	0.829	0.485	1.27	0.403	1.67	1.82	0.605	1.53	1.24	1.33	0.362	1.27	0.694
0.495	0.48	0.775	SESSFYKSLNL [NGEF_Y289_A286S_YF]	0.853	0.521	1.06	0.479	0.477	0.816	0.468	0.598	0.516	1.25	0.508	1.06	0.562
0.571	0.75	0.765	SFGENYDNSKS [MAN1B1_Y60]	0.833	0.408	0.766	0.438	0.452	0.548	0.567	0.434	0.461	0.958	0.464	0.89	0.444
2.29	3.86	0.704	SFHCSYSEIKD [DCLRE1C_Y322_S320C]	0.873	0.568	1.06	0.585	0.558	0.811	0.497	0.599	0.59	1.21	0.647	0.9	0.639
0.942	0.531	0.973	SFVMVYEGNAR [INSR_Y1038_G1035V]	0.618	0.747	1.28	0.634	0.562	0.85	0.393	0.621	0.683	1.25	0.77	1.22	0.551
0.589	0.542	0.842	SGGGLYRDMGA [CBX8_Y321]	0.502	0.428	0.564	0.48	0.524	0.522	0.42	0.53	0.624	0.618	0.373	0.557	0.373
0.608	0.444	0.526	SGGGSYGSGGG [KRT1_Y539]	0.512	0.346	0.626	0.412	0.351	0.372	0.349	0.312	0.282	0.491	0.271	0.599	0.356
0.573	0.404	0.928	SHLEDYPFNAE [AKR1B10_Y310]	0.713	0.504	1.01	0.517	0.489	0.771	0.413	0.568	0.511	1.14	0.396	1.03	0.594
0.365	0.445	0.735	SHMVDYQPYRK [TEX37_Y25]	0.91	0.701	0.759	0.59	0.47	0.505	0.575	0.609	0.402	0.83	0.673	0.719	0.575
0.931	0.799	1.05	SHNELYYEEAE [VANGL1_Y344]	0.896	0.626	1.5	0.544	1.05	1.15	0.58	0.736	0.733	1.27	0.578	1.37	1.03

Sequence	SH2 binding enrichment (SHP2-C SH2)	SH2 binding enrichment (c-Src SH2)	SH2 binding enrichment (Grb2 SH2)	phosphorylation enrichment (c-Abl (mouse))	phosphorylation enrichment (Hck)	phosphorylation enrichment (AncSZ)	phosphorylation enrichment (Fyn)	phosphorylation enrichment (FGFR1)	phosphorylation enrichment (FGFR3)	phosphorylation enrichment (MERTK)	phosphorylation enrichment (EPHB1)	phosphorylation enrichment (EPHB2)	phosphorylation enrichment (Fes)	phosphorylation enrichment (c-Src)	phosphorylation enrichment (Jak2)	phosphorylation enrichment (Fer (mouse))
SAASSYSFSDL [EMD_Y59]	0.598	0.544	0.846	0.753	0.468	0.839	0.477	0.434	0.666	0.498	0.508	0.47	0.951	0.455	0.874	0.478

— the supplement of paper PMC10065799, “High-throughput profiling of sequence recognition by tyrosine kinases and SH2 domains using bacterial peptide display” (eLife, 2023)
